# Test results from patent publication US20190367620A1 (Merck KGaA, published 2019).
# T1: Human FGFR1 D2-His6 (human, UniProt P11362 22-254)
# T1 construct: also called D2 domain; F3FR1c-D2
# T1 sequence: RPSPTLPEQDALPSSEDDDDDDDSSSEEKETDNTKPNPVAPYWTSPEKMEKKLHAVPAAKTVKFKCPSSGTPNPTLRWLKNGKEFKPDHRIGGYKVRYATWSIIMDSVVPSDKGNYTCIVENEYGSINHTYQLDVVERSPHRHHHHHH
# T2: human FGFR1b-IIIb extracellular domain with a HIS tag (human)
# T2 construct: also called huFGFR1b-IIIb; hFGFR1b-IIIb
# T2 chain: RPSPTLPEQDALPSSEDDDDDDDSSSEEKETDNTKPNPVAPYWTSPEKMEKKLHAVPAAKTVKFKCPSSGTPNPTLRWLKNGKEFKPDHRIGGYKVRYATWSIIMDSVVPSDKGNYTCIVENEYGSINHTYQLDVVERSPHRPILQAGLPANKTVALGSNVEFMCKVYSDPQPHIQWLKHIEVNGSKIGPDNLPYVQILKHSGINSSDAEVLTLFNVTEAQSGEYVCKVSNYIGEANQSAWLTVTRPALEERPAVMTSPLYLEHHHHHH
# T3: human FGFR1b-IIIc extracellular domain with a HIS tag (human, UniProt P11362 22-376)
# T3 construct: also called huFGFR1b-IIIc; hFGFR1b-IIIc
# T3 sequence: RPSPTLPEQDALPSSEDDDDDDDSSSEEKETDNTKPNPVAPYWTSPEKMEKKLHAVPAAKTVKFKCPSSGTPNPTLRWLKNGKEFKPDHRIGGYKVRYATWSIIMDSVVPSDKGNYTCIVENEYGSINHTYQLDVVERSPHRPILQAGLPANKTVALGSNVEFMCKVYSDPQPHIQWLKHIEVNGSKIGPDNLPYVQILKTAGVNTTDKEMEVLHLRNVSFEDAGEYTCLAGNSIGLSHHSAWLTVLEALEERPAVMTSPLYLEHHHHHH
# T4: ratFGFR1a-IIIc (rat, UniProt Q04589 22-376)
# T4 construct: Bought, His6 tag; also called rat FGFR1a-IIIc His6-tagged
# T4 sequence (looked up): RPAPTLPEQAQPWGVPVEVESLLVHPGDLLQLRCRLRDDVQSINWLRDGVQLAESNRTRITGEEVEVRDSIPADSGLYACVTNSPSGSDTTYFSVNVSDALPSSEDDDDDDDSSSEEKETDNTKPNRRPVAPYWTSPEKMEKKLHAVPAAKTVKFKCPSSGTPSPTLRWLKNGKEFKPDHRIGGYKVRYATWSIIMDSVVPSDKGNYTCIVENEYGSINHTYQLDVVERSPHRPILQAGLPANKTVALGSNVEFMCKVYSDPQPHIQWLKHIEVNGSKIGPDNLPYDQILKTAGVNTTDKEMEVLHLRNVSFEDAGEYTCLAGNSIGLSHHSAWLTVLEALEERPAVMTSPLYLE
# Experiments:
# Human FGFR1 D2-His6 = target: T1, Human FGFR1 D2-His6; assay: ELISA, antibody titrated on FGFR1 Ig-D2, O.D. 450 nm [panel FGFR1 Ig-D2]
# [1] = target: T2, human FGFR1b-IIIb extracellular domain …; assay: SPR (Biacore 4000), antibody captured, His-tagged FGFR1 injected; no unit in the table, nM inferred from paragraph 90
# Description: (§1) Binding affinities of anti-FGFR1 antibodies to FGFR1 were measured by Surface Plasmon Resonance (SPR) using a GE Healthcare BIAcore 4000 instrument as follows. Goat anti-human Fc antibody (Jackson ImmunoResearch Laboratories #109-005-098) was first immobilized on BIAcore carboxymethylated dextran CM5 chip using direct coupling to free amino groups following the procedure described by the manufacturer. Antibodies were then captured on the CM5 biosensor chip to achieve approximately 200 response units (RU). Binding measurements were performed using the running HBS-EP+ buffer. A 2-fold dilution series of His-tagged FGFR1 proteins were injected at a flow rate of 30 μl/min at 25° C. Association rates (kₒₙ, per mol/s) and dissociation rates (koff, per s) were calculated using a simple 1:1 Langmuir binding model (Biacore 4000 Evaluation Software). The equilibrium dissociation constant (KD, mol) was calculated as the ratio of koff/kₒₙ.
# rheFGFR1a-IIIc = target: T5, rheFGFR1a-IIIc (rhesus monkey); assay: as above
# T5 construct: Bought, His6 tag; also called rhesus monkey FGFR1a-IIIc His6-tagged
# Description: as §1
# [2] = target: T3, human FGFR1b-IIIc extracellular domain …; assay: as above
# Description: as §1
# ratFGFR1a-IIIc = target: T4, ratFGFR1a-IIIc; assay: as above
# Description: as §1
binder,measurement,setting,value
"mAb #A08 (antibody, V domains shown, Only variable domains are tied to the name mAb #A08 (hit); also called #A08 hit; mAb #08) VH: EVQLQESGPGLVKPSGTLSLTCAVSGGSISSNNWWSWVRQPPGKGLEWIGEIYHSGSTSYNPSLKSRVTISVDKSKNQFSLKLNSVTAADTAVYYCARGTDWFDPWGQGTLVTVSS VL: QAVLTQPPSVSVAPGQTARITCGGNNIGSESVHWYQQKPGQAPVLVVYDDSDRPSGIPERFSGSNSGNTATLTISRVEAGDEADYYCQVWDSTSDHRVFGGGTKLTVL",EC50 (read off the curve),Human FGFR1 D2-His6,~0.04 nM
same,Kd,[1],0.01 nM
same,Kd,rheFGFR1a-IIIc,0.46 nM
same,Kd,[2],0.017 nM
same,Kd,ratFGFR1a-IIIc,2.2 nM
